The text below walks through data of patent US20230383000A1.

The experiment deals with human IL-1R3 on cells (SK-MEL-30, A549, HEK-293 and other human cell lines) (human) (UniProt Q9NPH3). The experiment in a line: flow cytometry on SK-MEL-30 cells (high IL-1R3 expression), 1:2 dilution series from 20 µg/ml. For orientation: Flow cytometry measures light scatter and fluorescence of single cells or particles in a stream.
Chain of human IL-1R3 on cells (SK-MEL-30, A549, HEK-293 and other human cell lines) (human) (Q9NPH3 21-570): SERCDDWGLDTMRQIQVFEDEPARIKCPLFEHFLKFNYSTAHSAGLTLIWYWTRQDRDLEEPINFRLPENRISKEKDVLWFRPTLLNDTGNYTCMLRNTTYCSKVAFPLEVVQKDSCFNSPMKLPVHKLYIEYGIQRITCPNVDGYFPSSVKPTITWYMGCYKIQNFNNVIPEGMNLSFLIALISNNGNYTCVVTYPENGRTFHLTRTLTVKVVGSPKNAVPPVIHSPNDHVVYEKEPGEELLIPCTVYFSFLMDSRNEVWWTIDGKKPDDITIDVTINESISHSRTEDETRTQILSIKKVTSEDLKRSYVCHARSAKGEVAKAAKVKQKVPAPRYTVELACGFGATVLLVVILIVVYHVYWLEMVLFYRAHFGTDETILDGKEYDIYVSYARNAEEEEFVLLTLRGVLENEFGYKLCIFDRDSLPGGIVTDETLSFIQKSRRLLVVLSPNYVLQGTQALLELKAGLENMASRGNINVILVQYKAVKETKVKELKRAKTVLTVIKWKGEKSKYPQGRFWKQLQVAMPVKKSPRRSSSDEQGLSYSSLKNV

B1: MAB-16-0030 (humanized anti-IL-1R3 IgG1-LALA antibody) (antibody, from another filing, V domains shown)
VH: EVQLEESGGRLVQPGTSLRLSCAVSGFSLSSYDMSWVRQAPGKGLEWVSTIYIGGTTAYASWPKGRFTISKTNSKNTLYLQMNSLRAEDTAVYFCARLQGANYYNSLALWGQGTLVTVSS
VL: DVQMTQSPSSLSASVGDRVTITCQASQSIYSFLSWYQQKPGQAPKLLIYAASDLESGVPSRFSGSGSGTDFTLTISSLQPEDFATYYCQCNYIIDYGAFGQGTKVVIKR
In the case of B1, the EC50 (as a rule, the concentration needed to bring the measured effect to its halfway point) worked out at 0.307 µg/mL.
